Measured values reported in the DeepSol protein solubility set.

Assay: soluble on expression in E. coli; label from the status in PepcDB or PDB records

Sequence	soluble on expression in E. coli
NKNFTWTSNFNLTYQRALVDKLPEGKDIQYGDGEMYLHREGESMYTFYLPEWKGVNPETGLGEFWLDPEDHSKGVVNDYSEAGKGIVGKALPDVIGGFSNTFTYKDFDLSFLITYQFGGDMFDYPGYFSHHDGVRIGSMNLSEDVAGNYWKNPGDKVDNPMPIYANPYRWDRFSSRTIKSTDNIRLREMTVGYTLPVLKKHISNFRIYFRANNLAMLWSKTKNIDPDVAINGYRQADTPALRSCVFGINIKL	not soluble
SEEITDGVNNMNLATDSQKKNRIQVSNTKKPLFFYVNLAKRYMQQYNDVELSALGMAIATVVTVTEILKNNGFAVEKKIMTSIVDIKDDARGRPVQKAKIEITLVKSEKFDELMAAANEEKEDAETQVQN	soluble
MSLSNDIELTIDIELQSYLTSLFEGNAGAAIIMNVNDGSILAAGSFPEYDLNPFVTGISFKDWDELSNSLDHPFTNKLINGYYPPGSVVKMGVGLSFLNSKNISPSTHYVCNGSIELGGRFFRCWNRSGHGPVDLKHAIKYSCDVYFYNGSLQVGIDQISETLSRIGFGVKTGVDLPSEFVGTLPSKEWKMQRYRQSWFQGDTLNTAIGQGNFLATPMQIARYTAQIAKSGEVIPHFLKSIENNNTTIENQMDENKKEIFTLFEKSQLPYIRDAMYAVANEQGGTSYRYLHNLDVKVAAKTGTAQVVGFSQTDKNRVDEKQFEYYTRSHAWLTSYAPYSKPKYVVTVLLEHGGRNITSGATVAKIYQKMIELGYFKEGHHHHHH	not soluble
MNQTKLNQRLKQQQLFDIYGELLTKRQACYFNEYINLDLSMQEIADKYQVKKSSIHQHIKTCNLIFNRFEAKLQLFKKQQLRLKLYEKITDPQLREQLIKLR	soluble
AARQMEALNRGLVAVKTDGGIFVSWRFLGTENASVLFNVYRDGQKLNAAPVKTTNYVDKNGSAGSTYTVRAVVNGTEQPASEKASVWAQPYHSVPLDKPAGGTTPKGESYTYSANDASVGDVDGDGQYELILKWDPSNSKDNSQDGYTGDVLIDAYKLDGTKLWRINLGKNIRAGAHYTQFMVYDLDGDGKAEVAMKTADGTKDGTGKVIGNANADYRNEQGRVLSGPEYLTVFQGSTGKELVTANFEPARGNVSDWGDSYGNRVDRFLAGIAYLDGQRPSLIMTRGYYAKTMLVAYNFRDGKLSKLWTLDSSKSGNEAFAGQGNHNLSIADVDGDGKDEIIFGSMAVDHDGKGMYSTGLGHGDALHTGDLDPGRPGLEVFQVHEDKNAKYGLSFRDAATGKILWGVYAGKDVGRGMAADIDPRYPGQEVWANGSLYSAKGVKIGSGVPSSTNFGIWWDGDLLREQLDSNRIDKWDYQNGVSKNMLTASGAAANNGTKATPTLQADLLGDWREEVVWRTEDSSALRIYTTTIPTEHRLYTLMHDPVYRLGIAWQNIAYNQPPHTSFFLGDGMAEQPKPNMYTPLEHHHHHH	soluble
MGSDKIHHHHHHMKQMNVVLIGGGTGLSVLARGLREFPIDITAIVTVADNGGSTGKIRDVMDIPAPGDIRNVIAALSDSESILTQLFQYRFGENQVDGHSLGNLVIAGMTNITNDFGHAIKELSKVLNIKGQVIPSTNASVQLNAVMEDGEIVHGETNIPKTHKKIDRVFLEPSDVEPMNEAIEALEQADLIVLGPGSLYTSVISNLCVKGISEALLRTSAPKLYVSNVMTQPGETDNYDVKEHIDALTRQVGEPFIDFVICSSESYSKDVLQRYEEKNSKPVAVHKEQLKDSGIRVLTASNLVEISNEHYVRHNTKVLSKMIYELALELTSTIRFTPSDKKK	not soluble
MLEANVYDNFNPNYYNISDFSMPNGKKEKRGLPIPKARCQVINYELWETGYLYTSSATLTVSVEVGDIVQILFPEVVPIEEALGKKKKLNLDMVYLVTDVDESNKATLKNYFWAMIESLDVPNAITKTTNFAIIDYLIDPNKNNLMSYGYFFNSSIFAGKATINRKAETSSAHDVAKRIFSKVQFQPTTTIQHAPSETDPRNLLFINFASRNWNRKRITTRVDIKQSVTMDTETIVERSAYNFAVVFVKNKATDDYTDPPKMYIAKNNGDVIDYSTYHGDGTDLPDVRTAKTLFYDRDDHGNPPELSTIKVEISPSTIVTRLIFNQNELLPLYVNDLVDIWYEGKLYSGYIADRVKTEFNDRLIFVESGDKPNVI	soluble
MENVVIIDAVRTPMGRSKGGAFRHVRAEDLSAHLMRAVISRNPGLNAAEIDDIYWGCVQQTLEQGFNIARNASLLAEIPHSVPAVTVNRLCGSSMQALHDGARAIMVGDAKISLIGGVEHMGHVPMNHGVDFHPGMGRTVAKAAGMMGLTAEMLAKIHNISRQSQDEFAFRSHQRAYAATQAGHFAKEIVATNGHDAEGVLKRFDFDEVIRPETNLSGLAALRPAFDPVNGTVTAGTSSALSDGASAMLIMSESRAKSLGLTPRARIRSMAVVGCDPSIMGYGPVPASQLALKRAGLELADIGLFELNEAFAAQSLACLKGLGLLESMDDKVNLNGGAIALGHPLGCSGARISTTLLNLMERRDVQFGLATMCIGLGQGIATVFERL	not soluble
MGSDKIHHHHHHMTVVRQTAAEQATATGRRRASFHTLTVAEVRRLTDDAIEVTFGVPAELAGQYDYLPGQYVALRTTMPDENGQPHEVRRSYSICAEPRSFADGSSEIRVAIKKDLGGLFSTWANAELKPGDQLDVMSPMGAFVSKHGRDGKAVEQNVMNSMNHPEDLVGEPGSFVAIAAGSGITPVIAIARTLLAANPETRFDLIYANKAAMDVMFLEELADLKDKYPSRLALHHVLSREQRIAPLLSGRIDAEKLQALLGTAIHADDVDEWFLCGPFELVQLCRDTLAARGVQPEHVRFELFTSGKPDRPEGNIGRPVIADESKDTYKITFKLDGLEGKVESPTHARESLLNAALRVRPDVPFACAGGVCGTCRAKVVTGAVTMDENYALEQDELDKGYVLTCQSHPTTPEVTVDFDV	not soluble
GPGSMMTTCPQTRCYNCGTFGHSSQICHSKPHCFHCSHSGHRSSECPMRSKGRVCYQCNEPGHEAANCPQGQLCRMCHRPGHFVAHCPEVVCNLCHLKGHTAGVCDNVHCDNCGRNHETVHCHQPYLAPVTHDRVSEERSASLPSEHDPSSADQSNNSATPCDSDDGGSNRGGEPRPRTGVSCAPVVPPYIPLDGPKRDGRVAIVVDGSYFERCVAVRRNRSDPTYYRHITDALLYTIDYIGDIFQCEPFAYWFDTDTAAFREFVETSMPLAHRENAFREASMRKRYLTDEMNSGRSLPNVVAKLVGGMKRQRGFTEDGPGHVWVQTGVDVATATCVIELFQDRRQFRQVVLLCGDADVYPAVQYCNTLRRSSHQHADSNPVRVCGTSDSMSKIYGQQQDLTDFLPRLLLDCPLHTEGGRTIEFPTSKVFMSVR	not soluble
MPELSPLTYGHTDARLILRVGGSMGDVYGQRLLKRDLNGYILNEEGVGLAMENKETYLGSILPKMNMGWSLGFGYKGVNLGMTFTGRFGGIVISETQSVLDAAGVSKVSADVRDAGGVQINQSKVSAQTYYQTIQGTAAYYTYSATNVRLGELSLSYTLPKKWFDNKVGMTVGLVGKNLWMIYCKAPFDPELTTSAASNFYQGFDAYMLPSTRNFGFNVKFQF	not soluble
MKRTPLFEKHVELGAKMVDFAGWEMPLYYTSIFEEVMAVRKSVGMFDVSHMGEFLVKGPEAVSFIDFLITNDFSSLPDGKAIYSVMCNENGGIIDDLVVYKVSPDEALMVVNAANIEKDFNWIKSHSKNFDVEVSNISDTTALIAFQGPKAQETLQELVEDGLEEIAYYSFRKSIVAGVETLVSRTGYTGEDGFELMLEAKNAPKVWDALMNLLRKIDGRPAGLGARDVCRLEATYLLYGQDMDENTNPFEVGLSWVVKLNKDFVGKEALLKAKEKVERKLVALELSGKRIARKGYEVLKNGERVGEITSGNFSPTLGKSIALALVSKSVKIGDQLGVVFPGGKLVEALVVKKPFYRGSVRREV	soluble
MVWDVETAKRFLEIIKDEPIYYPALIALHTGMRAGEILSLKWCDVNFETRVISIVKSERKNRGLKTVNLKTKTSKRAVYMNDILYKELKNLYEITKPKPDDFVCPRLPTGNLTVNYLSRKFKKLVKKHNFPLIRFHDLRHTFATLMLSLGVNTKIVAEILGHSDIKLTADTYSHVLPTMQEEAMKEFVKLWKLEHHHHHH	not soluble
MAVNLNPPQAGQLPAVAGVELLVAEAGIKTPGRKDVLVVKLDKGNTVAGVFTRNRFCAAPVQLCQEHLAAGVQIRALVVNTGNANAGTGFDGRARALSVCRAVAERDQLQTEQVLPFSTGVILEPLPADKIVAALPALRQADWAEAAEAIMTTDTLAKAASRRLDIGGKAVTVTGIAKGSGMIHPNMATMLGFVATDAAVTRPMLNQLVREVADQSFNSITVDGDTSTNDSFILISTGQSGAELIDSAEQPAYQQLKQALLEVAIELAQAIVRDGEGATKFITVDVNGGRSVAECKDVAYAIARSPLVKTAFFASDPNLGRLLAAIGYAGVADLDVDRLSLYLDDVLVACEGGRNPAYKEAQGQAVMNQSEITVRVELGRGSASARVWTCDFSYEYVRINADYRSLEHHHHHH	not soluble
MTSVLDPDRALEDEAKDKFGFVGIAKQLAPPIIEAAKGEGMVIGLEGRWGSGKTSLLNFLRAELQASKKSGIHTITIAPWLNGDTSSLVLSLLEPMAAVLKQKEDELAESYGEGQSATKERVAEVGRLLRAYGPKTARRIASLANVAGYVLPGAQAIGGALAASASAADEIFDVGPTPSELKQELAVKIQELNVGFIVILDDLDRLEPEQAVEVVRLVRSVADFPKVVYLMCYDREVLSEALKTGLKVSDGDLFLQKIVQLTFNIPLPEPFDLRTQFRNEAKAIYFEATGVDLDGAILHDLTYAVDREGMGLSTPREVKLALNSIRFVFSQVKDDVYFPDLCRLHLIKTTNYKLYKWLEIYLSVRSVLVTGDATVSEDEKTKMGEELKMLLPASGPGSVHSIWSLARFIPGVVDTEKVSERVFNAINSSAISEAVRLKRLGSPLHYRFYFALTGPKTVMPDEDFNAILELARNDIDQLESRLAAETMKRRDSGRTWFEHVLDRLDDDCISSLDESQLSGILHALSGMMDIAMKEDGEVRSFALSLDGIANIVAKRCLVRLRELNPEKQANTVRSMAQDGKAINWLVGKFFRSQLFNHGKVGERAERPEQWEISEDLLDDIIEILRKRLSEQDIKNLIPNLPNVSAYLYGWMNLTDDDQAKNWVQEYSESDEGFLDILNHLRGWAMSDKVYYPLSEKTVSSFLDWNEVKTRLDGMQSGEFSDKLEHHHHHH	soluble
RRTAEAERDRLNELLQIFTAAVPGVVYAKDLEGRMLVANRGTAELVGKPPEFFIGKTDLEFLDDEQQARVLMETDQRIMQSNVSEQIEEKVNLADGSAAIWLSTKAPLLDRNGDVIGLIGSSIDVT	not soluble
MNTMEEKYILSDRGKVYYWIKESNSVFAKNLIFLPGLTANHHLFDFQIQYFSKNHNVLVWDAPAHGKSRPYLDFSYSNLVEELKVILDKQNMKKVVLIGQSAGGFVAQSFIVKYPNMVEGLMMIGTCPYGTDYYSKSDIFWLKQTEWMLKLFPDKLLRNIISKMCGATSEGRRSMLKMLEGYEKKELCHLMYLGFAGFIPEIQDLNIHCPVCLVVGDKDKTGKVRKYNEQWHNKTGYPLHIIKNASHNVNVDKPNELNQIMDIFIKQLNI	not soluble
GPMNQLDQLGTRINLICNVFDKWIGQQDLNYNLFAVLYTLATEGSRTQKHIGEKWSLPKQTVSGVCKTLAGQGLIEWQEGEQDRRKRLLSLTETGKAYAAPLTESAQEFSDKVFATFGDKRTTRLFADLDALAEVMEKTISENKK	soluble
